From patent US20260167728A1 (published 2026)

These binders were tested against T1, huCD3e-mFc (human, UniProt P07766 23-126) (assay: Pool 3 screen).
T1 construct: not shown: mFc, not described
T1 sequence (P07766 23-126): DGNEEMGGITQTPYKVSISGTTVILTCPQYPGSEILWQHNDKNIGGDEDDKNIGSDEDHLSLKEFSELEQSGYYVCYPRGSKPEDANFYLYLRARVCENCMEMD

Binder | Kd
AC3836 (CD3.332) (scFv, V domains shown, Pool 3 format (remarks)) VH: EVQLVESGGGIVQPGGSLRLSCAASGFTFNTYAMNWVRQAPGKGLEWVGRIRTKTNDYATYYADSVKGRFTISRDDSKNTAYLQMNSLKTEDTAVYYCVRHENFGNSYVSWFAHWGQGTLVTVSS VL: ELVVTQEPSLTVSPGGTVTLTCRSSNGAVTSSNYANWVQQKPGQAPRGLIGGTNKRAPGTPARFSGSLEGGKAALTLSGVQPEDEAVYYCALWYPNLWVFGGGTKLTVL | 30.6 nM
AC3837 (CD3.333) (scFv, V domains shown, Pool 3 format (remarks)) VH: EVQLVESGGGIVQPGGSLRLSCAASGFTFNTYAMNWVRQAPGKGLEWVGRIRTKTNDYATYYADSVKGRFTISRDDSKNTAYLQMNSLKTEDTAVYYCVRHENFGNSYVSWFAHWGQGTLVTVSS VL: ELVVTQEPSLTVSPGGTVTLTCRSSNGAVTSSNYANWVQQKPGQAPRGLIGGTNKRAPGTPARFSGSLGGGKAALTLSGVQPEDEAVYYCALWYPNLWVFGGGTKLTVL | 17.9 nM
AC3838 (CD3.334) (scFv, V domains shown, Pool 3 format (remarks)) VH: EVQLVESGGGIVQPGGSLRLSCAASGFTFNTYAMNWVRQAPGKGLEWVGRIRTKTNDYATYYADSVKGRFTISRDDSKNTAYLQMNSLKTEDTAVYYCVRHENFGNSYVSWFAHWGQGTLVTVSS VL: ELVVTQEPSLTVSPGGTVTLTCRSSNGAVTSSNYANWVQQKPGQAPRGLIGGTNKRAPGTPARFSGSLDGGKAALTLSGVQPEDEAVYYCALWYPNLWVFGGGTKLTVL | 30.7 nM
AC3839 (CD3.335) (scFv, V domains shown, Pool 3 format (remarks)) VH: EVQLVESGGGIVQPGGSLRLSCAASGFTFNTYAMNWVRQAPGKGLEWVGRIRTKTNDYATYYADSVKGRFTISRDDSKNTAYLQMNSLKTEDTAVYYCVRHENFGNSYVSWFAHWGQGTLVTVSS VL: ELVVTQEPSLTVSPGGTVTLTCRSSNGAVTSSNYANWVQQKPGQAPRGLIGGTNKRAPGTPARFSGSLLGGKAGLTLSGVQPEDEAVYYCALWYPNLWVFGGGTKLTVL | 24.5 nM
AC3840 (CD3.336) (scFv, V domains shown, Pool 3 format (remarks)) VH: EVQLVESGGGIVQPGGSLRLSCAASGFTFNTYAMNWVRQAPGKGLEWVGRIRTKTNDYATYYADSVKGRFTISRDDSKNTAYLQMNSLKTEDTAVYYCVRHENFGNSYVSWFAHWGQGTLVTVSS VL: ELVVTQEPSLTVSPGGTVTLTCRSSNGAVTSSNYANWVQQKPGQAPRGLIGGTNKRAPGTPARFSGSLLEGKAALTLSGVQPEDEAVYYCALWYPNLWVFGGGTKLTVL | 32.6 nM
AC3841 (CD3.337) (scFv, V domains shown, Pool 3 format (remarks)) VH: EVQLVESGGGIVQPGGSLRLSCAASGFTFNTYAMNWVRQAPGKGLEWVGRIRTKTNDYATYYADSVKGRFTISRDDSKNTLYLQMNSLKTEDTAVYYCVRHENFGNSYVSWFAHWGQGTLVTVSS VL: ELVVTQEPSLTVSPGGTVTLTCRSSNGAVTSSNYANWVQQKPGQAPRGLIGGTNKRAPGTPARFSGSLLGGKAALTLSGVQPEDEAVYYCALWYPNLWVFGGGTKLTVL | 12.2 nM
AC3842 (CD3.338) (scFv, V domains shown, Pool 3 format (remarks)) VH: EVQLVESGGGIVQPGGSLRLSCAASGFTFNTYAMNWVRQAPGKGLEWVGRIRTKTNDYATYYADSVKGRFTISRDDSKNTLYLQMNSLKTEDTAVYYCVRHENFGNSYVSWFAHWGQGTLVTVSS VL: ELVVTQEPSLTVSPGGTVTLTCRSSNGAVTSSNYANWVQQKPGQAPRGLIGGTNKRAPGTPARFSGSALGGKAALTLSGVQPEDEAVYYCALWYPNLWVFGGGTKLTVL | 17 nM
AC3843 (CD3.339) (scFv, V domains shown, Pool 3 format (remarks)) VH: EVQLVESGGGIVQPGGSLRLSCAASGFTFNTYAMNWVRQAPGKGLEWVGRIRTKTNDYATYYADSVKGRFTISRDDSKNTLYLQMNSLKTEDTAVYYCVRHENFGNSYVSWFAHWGQGTLVTVSS VL: ELVVTQEPSLTVSPGGTVTLTCRSSNGAVTSSNYANWVQQKPGQAPRGLIGGTNKRAPGTPARFSGSGLGGKAALTLSGVQPEDEAVYYCALWYPNLWVFGGGTKLTVL | 15.4 nM
